Target: AL1 ZFP (Clone 1) (artificial)
Assay: EMSA; significant binding at 14-35 nM; text prints SEQ ID NO 27 for the bound probe, apparently meaning the G (wild-type) probe SEQ ID NO 26
Conditions: tags: three Sp1C domain 2 framework fingers, pET21-a, E. coli BL21(DE3)pLysS; label: 5'-32P

Sequence of AL1 ZFP (Clone 1) (artificial) (chain, as listed by the source): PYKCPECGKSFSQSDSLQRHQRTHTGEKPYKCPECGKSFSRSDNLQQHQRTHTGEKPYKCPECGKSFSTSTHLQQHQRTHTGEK

B1: AL1 probe G (wild type) (dsDNA)
DNA 1: TATATATAAGTAAGGTAGTATATATA
DNA 2: TATATATACTACCTTACTTATATATA
- binding result: binds

Source: patent US20030082561, “Zinc finger domain recognition code and uses thereof” (published 2003)
